# Experimental data published in patent US7470769B2, “Epidermal growth factor receptor antagonists and methods of use” (Molecular Logix, Inc., priority 2004, dated 2008).
# Experiments:
# [1] = biological target: T1, EGFR in the form of A431 cell membrane receptor preparations (Homo sapiens, UniProt P00533); assay: EGFR kinase ELISA; format: biochemical; conditions: variant alone, compared with MLX hEGF
# T1 construct: EGFR in the form of A431 cell membrane receptor preparations; endogenous in cells; host or cells: A431 cell membranes
# Method: (§1) To examine the kinase activity of epidermal growth factor receptor (EGFR) in the presence of hEGF and EGF variants, an ELISA was developed. Briefly, an ELISA plate is coated with poly-glu, tyr (4:1) which serves as a substrate for tyrosine phosphorylation by the EGFR. The ELISA plate is then incubated with assay buffer, which includes an ATP generating system, EGFR in the form of A431 cell membrane receptor preparations, and EGF variant. After a 15 minute incubation ATP is added to the reaction to allow the kinase activity to proceed. Anti-phosphotyrosine antibody is added to bind to the phosphorylated tyrosine bound to the plate. Anti-mouse HRP conjugate antibody is added as the detection antibody, which is visualized with the addition of tetramethyl benzidine (TMB).
# The glycine at position 18 was replaced by glutamate (G18E), glutamine (G18Q), lysine (G18K), phenylalanine (G18F), and leucine (G18L). These variants were tested in the kinase assay described above and compared with recombinant wild-type human EGF (MLX hEGF).
# The following variations in the glycine at position 39 were made: G39E, G39Q, G39K, and G39L.
# [2] = tested on: HER5 cell line (expresses the human EGF receptor); assay: HER5 cell proliferation assay (WST-1); format: cell-based, murine; conditions: 48 hour proliferation, serum-free, WST-1 OD 450
# Method: The HER5 cell line, a murine fibroblast line (derived from the NR-6 line) that has been stably transfected to express the human EGF receptor was provided by Dr. M. C. Hung (MD Anderson Cancer Center). Stock cultures of HER5 were propagated in D-MEM/F12 medium containing 10% fetal bovine serum, 100 units/ml of penicillin and 100 ug/ml of streptomycin in a water-jacketed incubator at 37° C. in a humidified 5% CO2 atmosphere. For HER5 proliferation assays, the cells were changed into DMEM/F12 without serum for 24 hours. Cells were then trypsinized and suspended at 1E5 cells/ml. Serial dilutions of hEGF (PeproTech, Rocky Hill, N.J.), His-tagged hEGF, test proteins were prepared in serum-free DMEM/F12 at 2-fold the final concentration and plated into the wells of 96-well plates. Fifty microliters of cell suspension (5000 cells) were added to appropriate wells bringing the total volume to 100 ul at the desired concentrations. Plates were incubated for a 48 hour proliferation period. Cell proliferation was determined by addition of 10 ul/well of WST-1 Cell Proliferation Reagent (Roche Applied Sciences, Indianapolis, Ind.) for the last three hours of the proliferation period. […] The amount of formazan was measured at 450 nm using a microplate reader (Dynex Technologies) with MRX Revelation software.
# BALB/3T3 cells = assay: BALB/3T3 proliferation competition assay with hEGF; format: cell-based, murine; conditions: 0.5 nM and 5.0 nM hEGF, 48 hours
# Method: The BALB/3T3 proliferation assay was modified to test variants for competition with hEGF in the stimulation of BALB/3T3 cell proliferation. Serial dilutions of the test mutants were tested for proliferation in the presence of 0 nM, 0.5 nM, and 5 nM of the MLX-hEGF. BALB/3T3 cells were suspended at 3E4 cells/ml in complete serum media. 100 ul of cell suspension was plated per well in 96-well plates and incubated for 20-24 hours. Media was then aspirated from the wells, and the cells were washed once with DPBS. His-tagged wild-type hEGF at twice the final concentration was added in 50 ul/well. Serial dilutions of test mutants were prepared at twice the final concentration in serum-free media and 50 ul was added per well, bringing the final volume per well to 100 ml at the target concentrations of wt-hEGF and test mutants. Assay plates were incubated for 48 hours and cell proliferation was determined with WST-1 cell proliferation reagent (10 ul/well, 5 hr incubation). The absorbance at 450 nm was read with a microplate reader.
# [3] = biological target: T1, EGFR in the form of A431 cell membrane receptor preparations; assay: EGFR kinase competition ELISA; format: biochemical; conditions: 50 nM human EGF added
# Method: as §1
# The EGFR kinase competition assay is basically the same as outlined above in the description of the kinase ELISA. The difference is that in the initial incubation with the EGFR and EGF variant, 50 nM human EGF is added which competes with the EGF variant for binding to the EGFR. Both the variant EGF and the human EGF are added to the assay plate before the addition of the EGFR and assay buffer, making sure neither ligand has an advantage in binding to the EGFR.
# [4] = tested on: hEGF-stimulated cell proliferation; assay: Inhibition of hEGF-stimulated cell proliferation (FIG. 4, FIG. 5); format: cell-based; conditions: figure legends, cell line not stated
# EGFR = EGFR (Homo sapiens, UniProt P00533); assay: EGFR dimerization (FIG. 6)
substance,measurement,setting,value
"G39E: hEGF polypeptide variant, G39 replaced by glutamate (NSDSECPLSHDGYCLHDGVCMYIEALDKYACNCVVGYIEERCQYRDLKWWELR; not fully specified; left off: small tags and cut ends)",activation of the EGFR kinase,[1],some slight activity
"G39K: hEGF polypeptide variant, G39 replaced by lysine (NSDSECPLSHDGYCLHDGVCMYIEALDKYACNCVVGYIKERCQYRDLKWWELR; not fully specified; left off: small tags and cut ends)",activation of the EGFR kinase,[1],some slight activity
same,potency in the HER5 proliferation assay,[2],least potency in that series
same,competition with hEGF in stimulation of BALB/3T3 cell proliferation,BALB/3T3 cells,Apparent competition was observed at both hEGF concentrations
"G39L: hEGF polypeptide variant, G39 replaced by leucine (NSDSECPLSHDGYCLHDGVCMYIEALDKYACNCVVGYILERCQYRDLKWWELR; not fully specified; left off: small tags and cut ends)",competition with hEGF-related stimulation of EGFR kinase,[3],marked interference with hEGF-related stimulation of EGFR kinase
same,potency in the HER5 proliferation assay,[2],least potency in that series
same,competition with hEGF in stimulation of BALB/3T3 cell proliferation,BALB/3T3 cells,only seen in at 0.5 nM hEGF
same,inhibition of hEGF-stimulated cell proliferation,[4],inhibition of hEGF-stimulated cell proliferation
"V35EG39L: hEGF polypeptide variant, glycine 39 substituted with leucine and valine 35 with glutamic acid (NSDSECPLSHDGYCLHDGVCMYIEALDKYACNCVEGYILERCQYRDLKWWELR; not fully specified; left off: small tags and cut ends)",activation of the EGFR kinase,[1],unable to activate the EGFR kinase
same,competition with hEGF-related stimulation of EGFR kinase,[3],marked interference with hEGF-related stimulation of EGFR kinase
same,triggering of EGFR dimerization,EGFR,does not trigger EGFR dimerization
same,inhibition of hEGF-stimulated cell proliferation,[4],inhibition of hEGF-stimulated cell proliferation
